Measured values as given in IntAct's records for PubMed 17293598.

B1: Complement factor H (Homo sapiens), P08603 (parent)
chain: MRLLAKIICLMLWAICVAEDCNELPPRRNTEILTGSWSDQTYPEGTQAIYKCRPGYRSLGNVIMVCRKGEWVALNPLRKCQKRPCGHPGDTPFGTFTLTGGNVFEYGVKAVYTCNEGYQLLGEINYRECDTDGWTNDIPICEVVKCLPVTAPENGKIVSSAMEPDREYHFGQAVRFVCNSGYKIEGDEEMHCSDDGFWSKEKPKCVEISCKSPDVINGSPISQKIIYKENERFQYKCNMGYEYSERGDAVCTESGWRPLPSCEEKSCDNPYIPNGDYSPLRIKHRTGDEITYQCRNGFYPATRGNTAKCTSTGWIPAPRCTLKPCDYPDIKHGGLYHENMRRPYFPVAVGKYYSYYCDEHFETPSGSYWDHIHCTQDGWSPAVPCLRKCYFPYLENGYNQNYGRKFVQGKSIDVACHPGYALPKAQTTVTCMENGWSPTPRCIRVKTCSKSSIDIENGFISESQYTYALKEKAKYQCKLGYVTADGETSGSITCGKDGWSAQPTCIKSCDIPVFMNARTKNDFTWFKLNDTLDYECHDGYESNTGSTTGSIVCGYNGWSDLPICYERECELPKIDVHLVPDRKKDQYKVGEVLKFSCKPGFTIVGPNSVQCYHFGLSPDLPICKEQVQSCGPPPELLNGNVKEKTKEEYGHSEVVEYYCNPRFLMKGPNKIQCVDGEWTTLPVCIVEESTCGDIPELEHGWAQLSSPPYYYGDSVEFNCSESFTMIGHRSITCIHGVWTQLPQCVAIDKLKKCKSSNLIILEEHLKNKKEFDHNSNIRYRCRGKEGWIHTVCINGRWDPEVNCSMAQIQLCPPPPQIPNSHNMTTTLNYRDGEKVSVLCQENYLIQEGEEITCKDGRWQSIPLCVEKIPCSQPPQIEHGTINSSRSSQESYAHGTKLSYTCEGGFRISEENETTCYMGKWSSPPQCEGLPCKSPPEISHGVVAHMSDSYQYGEEVTYKCFEGFGIDGPAIAKCLGEKWSHPPSCIKTDCLSLPSFENAIPMGEKKDVYKAGEQVTYTCATYYKMDGASNVTCINSRWTGRPTCRDTSCVNPPTVQNAYIVSRQMSKYPSGERVRYQCRSPYEMFGDEEVMCLNGNWTEPPQCKDSTGKCGPPPPIDNGDITSFPLSVYAPASSVEYQCQNLYQLEGNKRITCRNGQWSEPPKCLHPCVISREIMENYNIALRWTAKQKLYSRTGESVEFVCKRGYRLSSRSHTLRTTCWDGKLEYPTCAKR
partner: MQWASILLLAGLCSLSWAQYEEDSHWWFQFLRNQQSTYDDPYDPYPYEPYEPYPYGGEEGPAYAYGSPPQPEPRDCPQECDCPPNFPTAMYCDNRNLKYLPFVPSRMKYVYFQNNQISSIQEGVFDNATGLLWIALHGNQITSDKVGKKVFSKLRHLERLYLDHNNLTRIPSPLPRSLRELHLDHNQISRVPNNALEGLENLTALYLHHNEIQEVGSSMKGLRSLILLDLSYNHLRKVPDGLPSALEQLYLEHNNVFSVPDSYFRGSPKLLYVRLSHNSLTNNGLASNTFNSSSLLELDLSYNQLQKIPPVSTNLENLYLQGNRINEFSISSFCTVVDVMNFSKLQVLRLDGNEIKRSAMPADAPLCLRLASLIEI
B2: Complement factor H (Homo sapiens), P08603 (parent)
chain: B1 chain
partner: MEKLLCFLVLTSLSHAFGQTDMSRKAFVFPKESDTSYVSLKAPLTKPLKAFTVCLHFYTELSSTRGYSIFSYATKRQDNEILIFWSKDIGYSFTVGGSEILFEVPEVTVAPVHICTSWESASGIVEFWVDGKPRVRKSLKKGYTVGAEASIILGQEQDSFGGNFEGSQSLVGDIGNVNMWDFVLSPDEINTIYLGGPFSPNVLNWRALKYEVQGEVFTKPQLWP

Variants of: B1
Conditions: with fmod_bovin FMOD

| Variant | effect of a mutation on the interaction |
| --- | --- |
| Y402H | decreasing interaction strength |

Variants of: B2
Conditions: with crp_human CRP

| Variant | effect of a mutation on the interaction |
| --- | --- |
| Y402H | decreasing interaction strength |
